T1: HPV16-E5 peptide on HLA-C*05:01 (human)
T1 peptide: NLDTASTTL

T2: HPV16-E5 peptide on HLA-C*08:02 (human)
T2 peptide: NLDTASTTL

T3: HPV16-E2 peptide on HLA-A*02:01 (human)
T3 peptide: TLQDVSLEVYL


Tests used:
[1] = target: T1, HPV16-E5 peptide on HLA-C*05:01; assay: cytokine release
[2] = target: T2, HPV16-E5 peptide on HLA-C*08:02; assay: cytokine release
[3] = target: T3, HPV16-E2 peptide on HLA-A*02:01; assay: killing

| Binder | binding result [1] | binding result [2] | binding result [3] |
| --- | --- | --- | --- |
| E5-NLD-TCR (TCR, V domains shown) Valpha: AQKVTQAQTEISVVEKEDVTLDCVYETRDTTYYLFWYKQPPSGELVFLIRRNSFDEQNEISGRYSWNFQKSTSSFNFTITASQVVDSAVYFCALSEGGGSQGNLIFGKGTKLSVKP Vbeta: GVSQSPRYKVTKRGQDVALRCDPISGHVSLYWYRQALGQGPEFLTYFNYEAQQDKSGLPNDRFSAERPEGSISTLTIQRTEQRDSAMYRCASSPELAGPQETQYFGPGTRLLVL | recognises | recognises | – |
| E2-TLQ-TCR (TCR, V domains shown) Valpha: AQTVTQSQPEMSVQEAETVTLSCTYDTSESNYYLFWYKQPPSRQMILVIRQEAYKQQNATENRFSVNFQKAAKSFSLKISDSQLGDTAMYFCAFTYGGSQGNLIFGKGTKLSVKP Vbeta: EPEVTQTPSHQVTQMGQEVILRCVPISNHLYFYWYRQILGQKVEFLVSFYNNEISEKSEIFDDQFSVERPDGSNFTLKIRSTKLEDSAMYFCASRASVGVGTGELFFGEGSRLTVL | – | – | recognises |

From patent US20230348558A1 (published 2023)
